Experimental data published in US20110105394A1 (Novo Nordisk, published 2011).
*1 amine or outer side, *2 acyl side, *3 side chain or, on linkers, in order; H or OH if unused. Bridges are numbered along the chain shown (N, C = ends). Where no end group is shown, it is not given here. Side-chain parts run from the residue outwards. The star is where a group is joined. X2 = (S)‑4‑Carboxy‑4‑(19-carboxynonadecanoylamino)butyryl, O=C(O)CCCCCCCCCCCCCCCCCCC(=O)N[C@@H](CCC(=O)*)C(=O)O; C20 diacid = O=C(O)CCCCCCCCCCCCCCCCCCC(=O)*; γGlu = O=C(O)[C@H](CCC(=O)[*:2])N[*:1]; AEEA = NCCOCCOCC(=O)O

Target: T1, Amylin 3(a) receptor (human calcitonin receptor (CTa) with RAMP-3) (human, UniProt P30988 25-474; O60896 24-148, limits assumed)
T1 sequence (looked up) 1: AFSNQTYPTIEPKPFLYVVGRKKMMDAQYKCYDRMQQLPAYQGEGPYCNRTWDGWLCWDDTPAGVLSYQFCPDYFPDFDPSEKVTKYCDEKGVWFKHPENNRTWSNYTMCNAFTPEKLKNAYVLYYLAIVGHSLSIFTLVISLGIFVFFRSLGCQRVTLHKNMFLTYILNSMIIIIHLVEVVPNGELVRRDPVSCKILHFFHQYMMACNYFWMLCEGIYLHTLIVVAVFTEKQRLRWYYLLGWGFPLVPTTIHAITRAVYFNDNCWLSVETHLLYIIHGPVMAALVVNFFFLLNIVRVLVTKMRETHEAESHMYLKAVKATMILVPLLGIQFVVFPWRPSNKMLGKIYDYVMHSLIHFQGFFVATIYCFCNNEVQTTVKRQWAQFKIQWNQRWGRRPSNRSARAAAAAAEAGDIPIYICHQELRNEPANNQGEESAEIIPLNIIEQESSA
T1 sequence (looked up) 2: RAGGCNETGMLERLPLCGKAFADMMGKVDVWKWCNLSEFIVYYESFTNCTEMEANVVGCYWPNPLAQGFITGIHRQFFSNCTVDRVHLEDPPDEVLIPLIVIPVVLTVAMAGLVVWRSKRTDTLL
Experiment: cell-based or functional assay

Binder | Potency Luciferase [pM]
{C20 diacid-γGlu-AEEA}-HCNTATCATQRLANFLHHSSNNFGPILPPTNVGSNTY-NH2 (disulfide 2-7) | 90
{C20 diacid-γGlu-AEEA}-HHCNTATCATQRLANFLHHSSNNFGPILPPTNVGSNTY-NH2 (disulfide 3-8; SMILES CC[C@H](C)[C@H](NC(=O)[C@@H]1CCCN1C(=O)CNC(=O)[C@H](Cc1ccccc1)NC(=O)[C@H](CC(N)=O)NC(=O)[C@H](CC(N)=O)NC(=O)[C@H](CO)NC(=O)[C@H](CO)NC(=O)[C@H](Cc1c[nH]cn1)NC(=O)[C@H](Cc1c[nH]cn1)NC(=O)[C@H](CC(C)C)NC(=O)[C@H](Cc1ccccc1)NC(=O)[C@H](CC(N)=O)NC(=O)[C@H](C)NC(=O)[C@H](CC(C)C)NC(=O)[C@H](CCCNC(=N)N)NC(=O)[C@H](CCC(N)=O)NC(=O)[C@@H](NC(=O)[C@H](C)NC(=O)[C@@H]1CSSC[C@H](NC(=O)[C@H](Cc2c[nH]cn2)NC(=O)[C@H](Cc2c[nH]cn2)NC(=O)COCCOCCNC(=O)CC[C@H](NC(=O)CCCCCCCCCCCCCCCCCCC(=O)O)C(=O)O)C(=O)N[C@@H](CC(N)=O)C(=O)N[C@@H]([C@@H](C)O)C(=O)N[C@@H](C)C(=O)N[C@@H]([C@@H](C)O)C(=O)N1)[C@@H](C)O)C(=O)N[C@@H](CC(C)C)C(=O)N1CCC[C@H]1C(=O)N1CCC[C@H]1C(=O)N[C@H](C(=O)N[C@@H](CC(N)=O)C(=O)N[C@H](C(=O)NCC(=O)N[C@@H](CO)C(=O)N[C@@H](CC(N)=O)C(=O)N[C@H](C(=O)N[C@@H](Cc1ccc(O)cc1)C(N)=O)[C@@H](C)O)C(C)C)[C@@H](C)O) | 100
HHHCNTATCATQRLANFLHHSSNNFGPILPPTNVGSNTY-NH2 (disulfide 4-9; not fully specified (N-terminus); printed as N-alpha-[(S)-4-Carboxy-4-(19-carboxynonadecanoylamino)butyryl]-His-His-[His1,His17]-pramlintide) [N-alpha-[(S)-4-Carboxy-4-(19-carboxynonadecanoylamino)butyryl]-His-His-[His1,His17]-pramlintide] | 60
KCK([Glu-Glu-Glu-Glu-C20 diacid])TATCATQRLANFLHHSSDNFGPILPPTNVGSNTY-NH2 (disulfide 2-7) [N-epsilon3-(19-carboxynonadecanoyl-Glu-Glu-Glu-Glu)-[Lys3,His17,Asp21]-pramlintide] | 2000
HRKCNTATCATQRLANFLHHSSNNFGPILPPTNVGSNTY-NH2 (disulfide 4-9; not fully specified (N-terminus); printed as N-alpha-[(S)-4-Carboxy-4-(19-carboxynonadecanoylamino)butyryl]-His-Arg-[His17]-pramlintide) [N-alpha-[(S)-4-Carboxy-4-(19-carboxynonadecanoylamino)butyryl]-His-Arg-[His17]-pramlintide] | 100
X2-ERECNTATCATQRLANFLHHSSQNFGAPLSSTNVGSNTY-NH2 (disulfide 4-9; SMILES CC(C)C[C@H](NC(=O)[C@H](CCCNC(=N)N)NC(=O)[C@H](CCC(N)=O)NC(=O)[C@@H](NC(=O)[C@H](C)NC(=O)[C@@H]1CSSC[C@H](NC(=O)[C@H](CCC(=O)O)NC(=O)[C@H](CCCNC(=N)N)NC(=O)[C@H](CCC(=O)O)NC(=O)CC[C@H](NC(=O)CCCCCCCCCCCCCCCCCCC(=O)O)C(=O)O)C(=O)N[C@@H](CC(N)=O)C(=O)N[C@@H]([C@@H](C)O)C(=O)N[C@@H](C)C(=O)N[C@@H]([C@@H](C)O)C(=O)N1)[C@@H](C)O)C(=O)N[C@@H](C)C(=O)N[C@@H](CC(N)=O)C(=O)N[C@@H](Cc1ccccc1)C(=O)N[C@@H](CC(C)C)C(=O)N[C@@H](Cc1c[nH]cn1)C(=O)N[C@@H](Cc1c[nH]cn1)C(=O)N[C@@H](CO)C(=O)N[C@@H](CO)C(=O)N[C@@H](CCC(N)=O)C(=O)N[C@@H](CC(N)=O)C(=O)N[C@@H](Cc1ccccc1)C(=O)NCC(=O)N[C@@H](C)C(=O)N1CCC[C@H]1C(=O)N[C@@H](CC(C)C)C(=O)N[C@@H](CO)C(=O)N[C@@H](CO)C(=O)N[C@H](C(=O)N[C@@H](CC(N)=O)C(=O)N[C@H](C(=O)NCC(=O)N[C@@H](CO)C(=O)N[C@@H](CC(N)=O)C(=O)N[C@H](C(=O)N[C@@H](Cc1ccc(O)cc1)C(N)=O)[C@@H](C)O)C(C)C)[C@@H](C)O) | 100
X2-ERECNTATCATQRLADFLHHSSNNFGAPLSSTNVGSNTY-NH2 (disulfide 4-9; SMILES CC(C)C[C@H](NC(=O)[C@H](CCCNC(=N)N)NC(=O)[C@H](CCC(N)=O)NC(=O)[C@@H](NC(=O)[C@H](C)NC(=O)[C@@H]1CSSC[C@H](NC(=O)[C@H](CCC(=O)O)NC(=O)[C@H](CCCNC(=N)N)NC(=O)[C@H](CCC(=O)O)NC(=O)CC[C@H](NC(=O)CCCCCCCCCCCCCCCCCCC(=O)O)C(=O)O)C(=O)N[C@@H](CC(N)=O)C(=O)N[C@@H]([C@@H](C)O)C(=O)N[C@@H](C)C(=O)N[C@@H]([C@@H](C)O)C(=O)N1)[C@@H](C)O)C(=O)N[C@@H](C)C(=O)N[C@@H](CC(=O)O)C(=O)N[C@@H](Cc1ccccc1)C(=O)N[C@@H](CC(C)C)C(=O)N[C@@H](Cc1c[nH]cn1)C(=O)N[C@@H](Cc1c[nH]cn1)C(=O)N[C@@H](CO)C(=O)N[C@@H](CO)C(=O)N[C@@H](CC(N)=O)C(=O)N[C@@H](CC(N)=O)C(=O)N[C@@H](Cc1ccccc1)C(=O)NCC(=O)N[C@@H](C)C(=O)N1CCC[C@H]1C(=O)N[C@@H](CC(C)C)C(=O)N[C@@H](CO)C(=O)N[C@@H](CO)C(=O)N[C@H](C(=O)N[C@@H](CC(N)=O)C(=O)N[C@H](C(=O)NCC(=O)N[C@@H](CO)C(=O)N[C@@H](CC(N)=O)C(=O)N[C@H](C(=O)N[C@@H](Cc1ccc(O)cc1)C(N)=O)[C@@H](C)O)C(C)C)[C@@H](C)O) | 600
{C20 diacid-γGlu}-CNTATCATQRLADFLHHSSNNFGPILPPTNVGSNTY-NH2 (disulfide 1-6; SMILES CC[C@H](C)[C@H](NC(=O)[C@@H]1CCCN1C(=O)CNC(=O)[C@H](Cc1ccccc1)NC(=O)[C@H](CC(N)=O)NC(=O)[C@H](CC(N)=O)NC(=O)[C@H](CO)NC(=O)[C@H](CO)NC(=O)[C@H](Cc1c[nH]cn1)NC(=O)[C@H](Cc1c[nH]cn1)NC(=O)[C@H](CC(C)C)NC(=O)[C@H](Cc1ccccc1)NC(=O)[C@H](CC(=O)O)NC(=O)[C@H](C)NC(=O)[C@H](CC(C)C)NC(=O)[C@H](CCCNC(=N)N)NC(=O)[C@H](CCC(N)=O)NC(=O)[C@@H](NC(=O)[C@H](C)NC(=O)[C@@H]1CSSC[C@H](NC(=O)CC[C@H](NC(=O)CCCCCCCCCCCCCCCCCCC(=O)O)C(=O)O)C(=O)N[C@@H](CC(N)=O)C(=O)N[C@@H]([C@@H](C)O)C(=O)N[C@@H](C)C(=O)N[C@@H]([C@@H](C)O)C(=O)N1)[C@@H](C)O)C(=O)N[C@@H](CC(C)C)C(=O)N1CCC[C@H]1C(=O)N1CCC[C@H]1C(=O)N[C@H](C(=O)N[C@@H](CC(N)=O)C(=O)N[C@H](C(=O)NCC(=O)N[C@@H](CO)C(=O)N[C@@H](CC(N)=O)C(=O)N[C@H](C(=O)N[C@@H](Cc1ccc(O)cc1)C(N)=O)[C@@H](C)O)C(C)C)[C@@H](C)O) [N-alpha-[(S)-4-Carboxy-4-(19-carboxynonadecanoylamino)butyryl]-[Asp14,His17]-pramlintide (2-37)] | 100
